Measured values published in paper PMC4220976, “Small-angle neutron scattering reveals the assembly mode and oligomeric architecture of TET, a large, dodecameric aminopeptidase” (Acta Crystallographica Section D: Biological Crystallography, 2014).
Changes are numbered by the printed parent chain. Names may count otherwise.

B1: Pyrococcus horikoshii TET2 aminopeptidase (PhTET2), wild type (enzyme)
chain: MEVRNMVDYELLKKVVEAPGVSGYEFLGIRDVVIEEIKDYVDEVKVDKLGNVIAHKKGEGPKVMIAAHMDQIGLMVTHIEKNGFLRVAPIGGVDPKTLIAQRFKVWIDKGKFIYGVGASVPPHIQKPEDRKKAPDWDQIFIDIGAESKEEAEDMGVKIGTVITWDGRLERLGKHRFVSIAFDDRIAVYTILEVAKQLKDAKADVYFVATVQEEVGLRGARTSAFGIEPDYGFAIDVTIAADIPGTPEHKQVTHLGKGTAIKIMDRSVICHPTIVRWLEELAKKHEIPYQLEILLGGGTDAGAIHLTKAGVPTGALSVPARYIHSNTEVVDERDVDATVELMTKALENIHELKI
modifications: dPhTET2: random-fractional deuteration, final level approximately 75%; hPhTET2: hydrogenated
notes: PhTET2, leucyl-aminopeptidase of the M42 family, Pyrococcus horikoshii; It was studied as a dimer (de-oligomerization buffer) and as a dodecamer; The preparation of hPhTET2 is not described separately; also called dPhTET2; hPhTET2; source: E. coli, purified (heating at 85°C, Resource Q, Superose 6); dPhTET2 grown in minimal medium with 85% D2O
B2: PhTET2 pentamutant (R217S, R220S, F224S, H248S and I292A) (enzyme, Pyrococcus horikoshii)
chain: B1 chain with R217S, R220S, F224S, H248S, I292A
modifications: deuterated form: random-fractional deuteration, final level approximately 75%; a hydrogenated form was also used
notes: PhTET2, leucyl-aminopeptidase of the M42 family, Pyrococcus horikoshii, with five mutations at the interface between the dimers; The mutant was designed in Appolaire et al. (2013) to slow the oligomerization process; Its deuterated and hydrogenated preparations are kept as one molecule; also called pentamutant PhTET2; mutated PhTET2; source: E. coli, purified (heating at 85°C, Resource Q, …)
B3: Pyrococcus horikoshii TET3 aminopeptidase (PhTET3), hydrogenated (enzyme)
chain: MDLKGGESMVDWKLMQEIIEAPGVSGYEHLGIRDIVVDVLKEVADEVKVDKLGNVIAHFKGSSPRIMVAAHMDKIGVMVNHIDKDGYLHIVPIGGVLPETLVAQRIRFFTEKGERYGVVGVLPPHLRRGQEDKGSKIDWDQIVVDVGASSKEEAEEMGFRVGTVGEFAPNFTRLNEHRFATPYLDDRICLYAMIEAARQLGDHEADIYIVGSVQEEVGLRGARVASYAINPEVGIAMDVTFAKQPHDKGKIVPELGKGPVMDVGPNINPKLRAFADEVAKKYEIPLQVEPSPRPTGTDANVMQINREGVATAVLSIPIRYMHSQVELADARDVDNTIKLAKALLEELKPMDFTP
notes: PhTET3, lysyl-aminopeptidase of the M42 family, Pyrococcus horikoshii; It was studied as a dimer (de-oligomerization buffer) and as a dodecamer; also called hPhTET3; hPhTET3 12s; source: E. coli, purified (heating at 85°C, Resource Q, Superose 6; as described by Durá et al., 2009)

Columns and labels:
[1] = molecular target: B3; assay: small-angle neutron scattering (SANS) with contrast variation; peak 2 (particle 2) heterododecamer of dPhTET2 and hPhTET3; 4.5 mg/ml; 20 mM Tris-HCl, 150 mM NaCl pH 7.5; 0, 49, 70 and 100% D2O; 20 to 80°C; mass calibrated against water; models scored with CRYSON; conditions: both partners purified
[2] = molecular target: the molecule itself; assay: SEC; Superose 6 (native polyacrylamide gels also run) after dialysis of the dodecamers against de-oligomerization buffer: 50 mM CAPS, 20 mM NaCl, 20 mM EDTA pH 10
[3] = molecular target: the molecule itself; assay: small-angle neutron scattering (SANS); homododecameric reference samples: dPhTET2 12s in 42% D2O and hPhTET3 12s in 100% D2O; 20 mM Tris-HCl, 150 mM NaCl pH 7.5; 20°C
[4] = molecular target: the molecule itself; assay: small-angle neutron scattering (SANS) with contrast variation; peak 1 (particle 1) heterododecamer of dPhTET2 and hPhTET3; 4.5 mg/ml; 20 mM Tris-HCl, 150 mM NaCl pH 7.5; 0, 42, 70 and 100% D2O; 20 to 80°C; mass calibrated against water; models scored with CRYSON
[5] = molecular target: B3; assay: as above; conditions: both partners purified
[6] = molecular target: the molecule itself; assay: small-angle neutron scattering (SANS); 1:1 mixtures of preformed homododecameric deuterated and hydrogenated PhTET2 (wild type or pentamutant) in 42% or 100% D2O; temperature raised from 20 to 80°C, 4 h at each temperature
[7] = molecular target: the molecule itself; assay: small-angle neutron scattering (SANS) with contrast variation; peak 2 (particle 2) heterododecamer of dPhTET2 and hPhTET3; 4.5 mg/ml; 20 mM Tris-HCl, 150 mM NaCl pH 7.5; 0, 49, 70 and 100% D2O; 20 to 80°C; mass calibrated against water; models scored with CRYSON

Row | Binder | stoichiometry N [1] | stoichiometry N [2] | stoichiometry N [3] | stoichiometry N [4] | stoichiometry N [5] | stoichiometry N [6] | stoichiometry N [7]
1 | B1 | 2 dPhTET2:hPhTET3 (8:4) | 2 | 12 | 6 | 1 dPhTET2:hPhTET3 (6:6) |  | 
2 | B2 |  |  |  |  |  | 12 | 
3 | B3 |  |  | 12 | 6 |  |  | 2
